Results as given in publication PMC3311620.

Molecular target: CXCR7-RLuc (human) (UniProt P25106)
Sequence of UniProt P25106 (P25106 whole entry): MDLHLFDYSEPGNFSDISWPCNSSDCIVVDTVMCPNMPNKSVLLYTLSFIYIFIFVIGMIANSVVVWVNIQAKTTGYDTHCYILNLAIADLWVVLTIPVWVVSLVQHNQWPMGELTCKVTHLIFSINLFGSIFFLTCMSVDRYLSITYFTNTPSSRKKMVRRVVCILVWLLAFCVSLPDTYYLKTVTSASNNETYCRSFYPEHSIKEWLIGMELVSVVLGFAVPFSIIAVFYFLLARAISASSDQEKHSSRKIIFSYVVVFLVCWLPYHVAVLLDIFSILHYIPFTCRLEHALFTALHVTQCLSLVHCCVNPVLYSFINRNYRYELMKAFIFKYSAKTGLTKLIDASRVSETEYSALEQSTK

pEC50 of CXCL11 for β-arrestin1-YFP recruitment to CXCR7-RLuc (BRET, HEK293T): 8.7
pEC50 of CXCL11 for β-arrestin2-YFP recruitment to CXCR7-RLuc (BRET, HEK293T): 8.5
B1: CXCL11 (I-TAC) (ligand)
chain: FPMFKRGRCLCIGPGVKAVKVADIEKASIMYPSNNCDKIEVIITLKENKGQRCLNPKSKQARLIIKKVERKNF
